Laboratory results from the RNAGym collection of RNA variant scans (doi:10.1073/pnas.2313332121).

B1: TPR t1 (parent)
chain: GACCAAUCUGCCCUCAGAGCUCGAGAACAUCUUCGGAUGCAGAGGAGGCAGGCUUCGGUGGCGCGAUAGCGCCAACGUCCUCAACCUCCAAUGCAUCCCACCACAUGAUGAUGCCUGAAGAGCCUUGGUUUUUUG

Variants of: B1
Assay: polymerase ribozyme fitness, log enrichment relative to wild type (log ratio); higher = more active; in vitro selection for triplet polymerase activity
In short: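 Each subunit of a heterodimeric triplet polymerase ribozyme was represented by a PCR-built, transcribed mutant library that underwent triplicate single-round in vitro selection with frozen incubation at −7 °C. Extended constructs were recovered by gel excision, streptavidin-bead capture and RT-PCR, and Illumina sequencing of input and output libraries kept genotypes with ≥10 input reads and ≥1 read per output. Fitness is the logarithm of genotype enrichment relative to wild-type enrichment, from inverse-variance-weighted replicate averages, with a logarithm base of 2.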

Point of comparison: GACCAAUCUGCCCUCAGAGCUCGAGAACAUCUUCGGAUGCAGAGGAGGCAGGCUUCGGUGGCGCGAUAGCACCAACGUCCUCAACCUCCAAUGCAUCCCACCACAAGAUGAUGCCUGAAGAGCCUUGGUUUUAUG, “polymerase ribozyme fitness (log ratio)” value -1.42. Against it:
- GACCAAUCUGCCCUCAGAGCUCGAGAACAUCUUCGGAUGCAGAGGAGGCAGGCUUCGGUGGCGCGAUAGCCCCAACGUCCUCAACCUCCAAUGCAUUCCACCACAUGAUGAUGCCUGAAGAGCCUUGGUUUUUUG — within 0.2 log units, -1.45
- GACCAAUCUGCCCUCAGAGCUCGAGAACAUCUUCGGAUGCAGAGGAGGCAGGCUUCGGUGGCGCGAUAGCACCAACGUCCUCAACCUCCAAUGCAUCCCACCACAUGAUGAUGCCUGAAGAGCCUUGGUUUAUUG — higher, -0.617
- GACCAAUCUGCCCUCAGAGCUCGAGAACAUCUUCGGAUGCAGAGGAGGCAGGCUUCGGUGGCGCGAUAGCCCCAACGUCCUCAACCUCCAAUGCAUCCCACCACAUGAUGAUGCCUGAAGAGCAUUGGUUUUUUG — higher, -0.102
- GACCAAUCUGCCCUCAGAGCUCGAGAACAUCUUCGGAUGCAGAGGAGGCAGGCUUCGGUGGCGCGAUAGCCCCAACGUCCUCUACCUCCAAUGCAUCCCACCACAUGAUGAUUCCUGAAGAGCCUUGGUUUUUUG — lower, -4.07
- GACCAAUCUGCCCUCAGAGCUCGAGAACAUCUUCGGAUGCAGAGGAGGCAGGCUUCGGUGGCGCGAUAGCACCAACGUCCUCAACCUCCAAUGCAUCCCACCACAUGACGAUGCCUGAAGAGCCUUGGUUUUUUG — lower, -4.59
- GACCAAUCUGCCCUCAGAGCUCGAGAACAUCUUCGGAUGCAGAGGAGGCAGGCUUCGGUGGCGCGAUAGCCCCAACGUGCUCAACCUCCAAUGCAUCCCACCACAUGAUGAUGCCUGAAGAGCCUUGGUUUUUUG — lower, -1.96
- GACCAAUCUGCCCUCAGAGCUCGAGAACAUCUUCGGAUGCAGAGGAGGCAGGCUUCGGUGGCGCGAUAGCCCCAACGUCCUCAACCUCCAAUGCAUCCCACCACAUGAUGAUGCCUGAAGAGCCUUGGUUUUUUU — lower, -2.55
- GACCAAUCUGCCCUCAGAGCUCGAGAACAUCUUCGGAUGCAGAGGAGGCAGGCUUCGGUGGCGCGAUAGCCACAACGUCCUCAACCUCCAAUGCAUCCCACCACAUGAUGAUGCCUGAAGAGCCUUGGUUUUUUG — lower, -6.22
- GACCAAUCUGCCCUCAGAGCUCGAGAACAUCUUCGGAUGCAGAGGAGGCAGGCUUCGGUGGCGCGAUAGCCCCAACGUCCUCAACCUCCAAUGCAUCCCACCACAUGAUGAUUCCUGAAGAGCCUUGGUUUUUUG — lower, -2.72
- GACCAAUCUGCCCUCAGAGCUCGAGAACAUCUUCGGAUGCAGAGGAGGCAGGCUUCGGUGGCGCGAUAGCACCAACGUCCUCAACCUCCAAAGCUUCCCACCACAUGAUGAUGCCUGAAGAGCCUUGGUUUUUUG — lower, -4.72
- GACCAAUCUGCCCUCAGAGCUCGAGAACAUCUUCGGAUGCAGAGGAGGCAGGCUUCGGUGGCGCGAUAGCACCAACGUCCUCAACCUCCAAUGCAUCCCACCACAAGAUGAUGCCUGAAGAGCCUUGGUUUUUUG — higher, -0.841
- GACCAAUCUGCCCUCAGAGCUCGAGAACAUCUUCGGAUGCAGAGGAGGCAGGCUUCGGUGGCGCGAUAGCACCAACGUCCUCAACCUCCAAUGCAUCCCACCACAGGAUGAUGCCUGAAGAGCCUUGGUUUUUUG — lower, -2.73
- GACCAAUCUGCCCUCAGAGCUCGAGAACAUCUUCGGAUGCAGAGGAGGCAGGCUUCGGUGGCGCGAUAGCCCCUACGUCCUCAACCUCUAAUGCAUCCCACCACAUGAUCAUGCCUGAAGAGCCAUGGAUUUUUG — lower, -7.38
- GACCAAUCUGCCCUCAGAGCUCGAGAACAUCUUCGGAUGCAGAGGAGGCAGGCUUCGGUGGCGCGAUAGCCCCAACGUCCUCAACCUCCAAUUCAUCCCACCAUAUGAUGAUGCCUGAGGAGCCUUGGUUUUUUG — higher, -1.16
- GACCAAUCUGCCCUCAGAGCUCGAGAACAUCUUCGGAUGCAGAGGAGGCAGGCUUCGGUGGCGCGAUAGCCCCAACGUCCUCAACCUCCUAUGCAUCCCACCACAUGAUGAUGCCUGAAGAAUCUUGGUUUUUUG — lower, -3.12
- GACCAAUCUGCCCUCAGAGCUCGAGAACAUCUUCGGAUGCAGAGGAGGCAGGCUUCGGUGGCGCGAUAGCCCCAACGUCCUCAACCUCGAAUGCAUCCCACCACAUGAUGAUGCCUGAAGAGCCUUGGUCUUUUG — lower, -4.18
- GACCAAUCUGCCCUCAGAGCUCGAGAACAUCUUCGGAUGCAGAGGAGGCAGGCUUCGGUGGCGCGAUAGCACCAACGUCCUCAACCUCCAAUGCAUCCCACCACAUGAUGAUGCCUGAAGAGCCUUGGUUGUUUG — within 0.2 log units, -1.27
- GACCAAUCUGCCCUCAGAGCUCGAGAACAUCUUCGGAUGCAGAGGAGGCAGGCUUCGGUGGCGCGAUAGCACCAACGUCCUCAACCUCCAAUGCAACCCACCACAUGAUGAUGCCUGAAGAGCCUUGGUUUUUUG — lower, -2.13
- GACCAAUCUGCCCUCAGAGCUCGAGAACAUCUUCGGAUGCAGAGGAGGCAGGCUUCGGUGGCGCGAUAGCCCCAACGUCCUCAACCUCCAAUGCAUCCCACCACAUGAUGAUGCCUGAACAGCCUUGGUUUUUUG — higher, 0.219
- GACCAAUCUGCCCUCAGAGCUCGAGAACAUCUUCGGAUGCAGAGGAGGCAGGCUUCGGUGGCGCGAUAGCCCCAACGUCCUCAACCUCCAAUGCAUCCCACCACAUGAUGAUGCCUGAAGAGUCUUGGUUUUUUG — higher, -0.362
